Experiment: label from the status in PepcDB records

Sequence | protein production
MNAATLVDTHAVDTALQEAFEAAPEGFALFDAEDRCVIWNARYGELWSKWGVTLAVGATFESLLLAGLAAGRFPEANGDRAAWLAHQLGRRKLDRIEEIREEFGEYLRFESRRTPAGGLITTCANLTNLRRREAQALAARSFLDTIVENTPAMLFVKDGDTGAFLLVNRAAENQLGVPRAELLGKSDYDFFPKEQADAFAADDRRVIASGKLVTIDEEPLDTPHNGRRWLQTRKIAIPGEDGRRHLLVICEDITERKAGAAALAEALQKAEAGSVAKSEFLANMSHEIRTPLNGVIGMAEVLSRTALDDAQREMMEVILNSGRALNLLLSDILDLSKIEAGGLELSRDPLDLREAITAAVAVFKAVAESKGLVFRLTFADDFHDHVLGDALRVRQIVANLTSNAVKFTTAGSVIIEARTLVAEDGRIDLTVSVQDTGEGFDEDSADRLFERFQQADGSVTRKVGGTGLGLPIARRLARLMDGEISCVAHPGEGATFVFEALFLADGQRTPALEHHHHHH | failed
MARVARWFLAVETVAFLGAAGVHAGVLWRGHEHARAATAETVIGVVLGLALLAAAARPRWSRRAAIGAQAFALLGTAVGLFTIAIGVGPRTAPDLAFHVAIVATLVVGLLRLARPTAGLREATP | failed
MIKKIHRWLPLLVLIGLLVLFFSLHLDKYLSFNALRENHALLIAWTQTHYFIAPLIFIVFYTTAVAISIPGAVLLTLTGGFLFGVFWGVLFVVISATLGATILFFAVRTALGDWFAQKASGWIERMRQGFQHNAFSYLVTLRLIPLFPFWAVNIVPALLNIRAKTFITATFIGIIPGTTVYVMVGNGLSQIFAANQTPNLGIIFELQILGPLLALAVLSLMPVLYQFSTRKHQNHHSFSDISRVINCDLAIIGGGAGGLSLASGCSQLGLKVVLVESGKMGGDCLNYGCIPSKSLLAAAKTFYYAKHATHFGVHTEAIKINFQQVMQHVHQIIDNISEHDSVQRFESLGVQVIKQVGKFLNPDTLQAGDSIIKAKRFVVATGSSPFIPPIPGLDAVSYFTNETIFDLKEQPEHLIVIGGGPIGCELAQAFAMLGSKVTLLEGLNLLPKDDPDCVAVLRTQMKSMSIVIHEQIEITQINSHPDTGISVCFEFQNTQFTITASHLLIATGRRANVKPLDLEKAGVKLTSKGVEVNKYLQTSNKKIYALGDVTGLYQFTHMASYQASIVLRNIVFKLPSKVDYRAIPWVTYTDPELAHVGIGVSDALKHPDAQIIEWPFVDNDRAQTERSLNGKIKIITDKKARILGVTIVGPHAGELILPWVMAIREKKNLRSFTDVIVPYPTLSEISKRVAGSFYAPKLFSNKTRMLVRWLQKIG | failed
MMFDEFKRTILREDIKYEIFRKFFHIFSLIVLVFYRINFWIGLFSNILFMILYLSSEIFRITEKKILFFKNISNIILKSRKILPNRVSFSPVFLFLGILISYCLSMHPFNYIGIFSVCLGDGFASLIGKLIPSFKLVNGKTISGSLVVFCVTFFSYYYFFPYLTVALILGILAVLVELFDAANYDNLFLPLVVSASSYFLTSFFYSQ | failed
MGKVILVTGVSRGIGKSIVDVLFSLDKDTVVYGVARSEAPLKKLKEKYGDRFFYVVGDITEDSVLKQLVNAAVKGHGKIDSLVANAGVLEPVQNVNEIDVNAWKKLYDINFFSIVSLVGIALPELKKTNGNVVFVSSDACNMYFSSWGAYGSSKAALNHFAMTLANEERQVKAIAVAPGIVDTDMQVNIRENVGPSSMSAEQLKMFRGLKENNQLLDSSVPATVYAKLALHGIPDGVNGQYLSYNDPALADFMP | not failed
MSSRMARLGLSTYRLAGTVASPVVGLYLTYRTAKGKEDRARRLERFGYPSANRPQGPLVWFHAASVGETNAVIPLIREIRRRDIHVILTTGTITSARLAAERLGQEAIHQYVPLDLKPSVSRFLDYWQPDCAIIAESEIWPATVLELGRRRIPQILVNARMSDRSFARWRRRQSIAEALFENLALVIAQSDVDAERFRDLGAVPVITSGNLKVDTDAPPYDSAVFARYKKQIGDRKTWAAISTFDGEENAAGIVHRVLKERDRQLTIIVPRHPERSDEIEAALVKQGLKVARRTRDDVLSADVDIFLGDTIGEMGLYLRLTEIAFVGRSLFAEGGQNPLEPAMLGCAILSGGNVQNFREAYQKLARSGSARMVRDTEMLAKGVHYLLTNDEARRNMIEAGVATVHEMRGALSATVKGLEPYINPLTVKARLLPKAAAQV | failed
MDLGKPMKSVLVVALLVIFQVCLCQDEVTDDYIGDNTTVDYTLFESLCSKKDVRNFKAWFLPIMYSIICFVGLLGNGLVVLTYIYFKRLKTMTDTYLLNLAVADILFLLTLPFWAYSAAKSWVFGVHFCKLIFAIYKMSFFSGMLLLLCISIDRYVAIVQAVSAHRHRARVLLISKLSCVGIWILATVLSIPELLYSDLQRSSSEQAMRCSLITEHVEAFITIQVAQMVIGFLVPLLAMSFCYLVIIRTLLQARNFERNKAIKVIIAVVVVFIVFQLPYNGVVLAQTVANFNITSSTCELSKQLNIAYDVTYSLACVRCCVNPFLYAFIGVKFRNDLFKLFKDLGCLSQEQLRQWSSCRHIRRSSMSVEAETTTTFSP | failed
MNSEKDVMADASAMRTSMHALAVYGATPLFVLLWSGGAIFSRVGLSHASPFAFLTLRFVIALPLLAAIGVARRCMLPAPGTRVRVAVTGALMIGGYSISYLLALDFGMTPGVLATVLGVQPILTLLWMERRVSVARLAGLTLALAGLVTIVADSLMAARFSMAGWGAALAALACMTVGAIGQKGIRQAAVEILPLQYTVALAMCLLCVPFQPFRFEHVPGFFFPLLWMGIVISVVATLLFYRLIQAGNLVNVTSLFYLVPPVTVLLDFVALSNRPAPLALVGMIAIPVGLALAFRAGR | failed
MEPITQAFAQQFSREWIDAWNAHDLDAILSHYADGFEMSSPMIVQIAGEPSGRLRGKEQVGAYWREALRMIPDLHFEWIATLAGVDSVAIHYRGAKGRLALEVFHFGPDRRVVKALAHYAG | not failed
MDTVTLARAFFGSSLAFHIIFATLGVGLSLMIFISEILYHWKKDSDYAIMAKRWTKAFAILLGVAIPTGTIVGVQISLLWPGFAKIVGQVISVPFQIEIFAFFLEALFMSIYVYAADKLPPFMRLISLFFVMLGATASAVLITSANTWMNTPAGFSMNPDGSVFNVDPWKAFFNPSFGTSAFHVVITAYATGAAVIASIAGFKLLKKNLSTREIAYHKKGLLLGLVVTFITGATMWLSGHESAIALHKHSPEKLASAEALFETTSHAPLSIGGVVDPNTLELNYALEIPNMLSLLVGLDPSTVVKGLKEFPQETWPPFYTHTLFNLMVGTAAFTFAVAAIALLYWYFVYRKKGTELPKWLLWGAAACGPIMMLGIEFGWIFSCSGRQPWTIYGMQRTVDASTRADFVGPLFVLFIILYIGLAILTVIVLRTFFRRHPLKNDLQHQGGDSHA | failed
KTITGFYPLNQGHDALLARTSLIESAQKSLDLQYYIYRGDETSQLITWRLYEAAKRGVRIRLLLDDMQKRNDNVMAALNAHPNIEIRLFNPHQYRSARIFALTSDFERLNRRMHNKSLIADSVSAIVGGRNIGNEYFSFESEVEFGDFDLLLYGEAVQQTADQFDLYWNSVHAVPMEWISPQSQSVSDAAIQKQVTKLNLQEKFSSGRYDFTALDMYQ | failed
MSIASLIGTVGGVGYLRPAPGTWGSLAALPLAWVLHQLGGFPLLALATLGAFVAGLWATRVMTAGQTDHDPSEIVIDEVAGQFLALWALSLPAWSHGIEISALWPGWIAAFVLFRLFDITKPGPVGWADRRGDPMGVMLDDIIAGLFAAIGTALLAALSHGVLGL | failed
MNDVASTKSRVAAVSVVASATMAAAKFAVGIAIGSLALISEALHSSIDLVATIITWFVVRISDRPADDAHHYGHGKIESLSALGVIAMLYVLAGGILVEAYSRLREGAAPPTFSYLAFVILGVDIVVNLWRAWALHRTAVATKSQALAADALHFASDVLGSFAVIAGLALAAAGFHWGDAAAAIGVAVMISLLGLRLGRSTIQTLLDRAPEGVSDKAREAIGAVPGVVGVERLRARMVGPTHFIDALVEVPRTYPIDRIDEIKRKAQESMSEIFGDADLTFTAIPVARDNESVRERIMVIARNSGLAVHHVTVHDLGGHKLIVSIDLEVDGNMPLIEAHDIAHKLEDHIREDFGADVEVDTHIEPLEPELPQGSDAEPARVEEIRLALRRLTHDGAIHDVHSVRVRDTDAGEIVNFHCYADPSMSVISVHDHVDEIERKLRAKFPSVKRVISHAEPPNAD | failed
MAPDQAKPAPFRDQFHRVLGVIRRGKLLILACVLLVVAPTIVFLQQATPRYTANAAVLIEAPDATDSLLDRSDMSRTRLNDLMITTEAEVLGSTPLARRVIDKLGLDQDPEFNARLRKPTAFQRVTFWLNPINWIPDGWRAGRKDEATMTPKVREELQRARVTATFLGRLSVKPKRRSFVIDLEFTATSREKSALIVNTLADLYVFDRLEAGFDETKRVNEWLAQRLESLRGDVALAEAAVETYRAENGLRPVGERQGTVANQQLTELNSRLVLARADLAQKQARLDQVRSLSRGGGVATASDVLQSSLIQQLRQREAEVRSALSEAEKTYGERHPKIIGMRADLGQLQSSIGGEIGKIASSAEGDVEIAAIGVRTLEREIVGLRQEGDVQGGAIVRLRELERQADSSRSLYEAFLSRFKRNAEQEQIQRANARLLSPADIPASPSYPRKIPILLVMMVVGFGLGIGLVFLVEGLDGTVHSTEELEALVGLPPLAVIPVVRGRGGGAVVLARPRAPIAHAFRNLRTALTLNGEETRRRIVMVSSSVPKEGKSFVSLGLALTYARAGERVLLIDADVHRSSLAATIGIDGTRGLAQVLRGEATLDQVVTRPPGMDLDFLAAGEASAQEELFDASTLGALLSEPASRYDRIIIDTAPVLAVADARIVAGVADQVIYLVRWGSTQQTAVRNGIKLLRDVRAPLAGMVLSQVDVRRHAVYGYGDYGASYGRYQEYYAE | failed
MPSSRRVRSRCCAFGITKRFACIRPACQRARMDAQMTNFETRLRENAAKTEALLGHLLSGEARADEITRPQNLLEAMRHGVLNGGKRLRPFLVIESVALLGGDAEAGLHVGAALECLHCYSLVHDDLPAMDDDDLRRGQPTVHRKFDEATAILAGDSLLTLAFDIIASDDNPLAAERKAALVISLARAAGIGGMAGGQALDLAAEKKAPDEDGIITLQAMKTGALLRFACEAGAIIAGSNQAERQRLRLFGEKIGLSFQLADDLLDLTADAATMGKATGKDAARGKGTLVALRGEAWAREKLQE | not failed
MFTESSPAMDPDLPESETRPEFNPSSTDSTAMAESTDAGEPTAFELASSQVTSVADLPPERFNSLDELTHDLGSLHELSTRGSWQAILEKISQARALFLLTKPHEHLTYLTYQVMALAKLRRSDEASHELNSLHDFDGTHYRYESFPEIYPNRRGSMVPFSLRWLYALIPTKLGNRQEGLDRLYVLLDFVRDRIREKESQSLESSVELWKKRETFVMNCLLGFHLGHKEFGVSLDLMKELINRDPLDPVLISKLGSVQMQFGDVEGAKTTFDRVEKMLNEGKSNGLLNEIQFNNLVGRNKALVYVVAKDYVSAVREYDKCIERDNSDIIAVNNKALCLMYLRDLSDAIKVMESALERVPTAALNESLVVNLCSMYELAYVNHTDVKRTLNNWIARVAPDDFDSSCTRV | failed
MRNEAFDILKDIPKWKLIFWLLLAITLTPITELIIYRLVTSVIESSLTLTELGKEFIRIFGYEKYKGIKESLWMMIVSYLFLFSIFSSYLYIFYRHEKKLYYETCIKKMIEEIRYIANGNFNHKVSIVNHNYLEELAIGVNEIVEQLKVSIDEERQAEQAKSELITNVSHDLRTPLTSIVGYVNLIHHDNYRDEVELRYYIQVIYDKVTRLNALMNDLFEYTRVQNKELSLYSVPIDIVELLGQLTVQFRIQVQEANIECRPSFPSQKLMVLADGDKLVRVFENLIINAIAYGSEGRYIDLTAYESNNMITIDITNYGQPIPSTDLPHIFERFYRVEKSRSTNTGGSGLGLAIAKSIVELHKGTIEVYSDDEKTTFTVKLLPYKC | failed

From a protein production outcome set (Wang et al. 2014)
